Laboratory results reported in publication PMC5098423 (DNA repair, 2015).

Molecular target: T1, Q324H MUTYH (human, UniProt Q9UIF7-3 1-535, Q324H)
T1 sequence (looked up): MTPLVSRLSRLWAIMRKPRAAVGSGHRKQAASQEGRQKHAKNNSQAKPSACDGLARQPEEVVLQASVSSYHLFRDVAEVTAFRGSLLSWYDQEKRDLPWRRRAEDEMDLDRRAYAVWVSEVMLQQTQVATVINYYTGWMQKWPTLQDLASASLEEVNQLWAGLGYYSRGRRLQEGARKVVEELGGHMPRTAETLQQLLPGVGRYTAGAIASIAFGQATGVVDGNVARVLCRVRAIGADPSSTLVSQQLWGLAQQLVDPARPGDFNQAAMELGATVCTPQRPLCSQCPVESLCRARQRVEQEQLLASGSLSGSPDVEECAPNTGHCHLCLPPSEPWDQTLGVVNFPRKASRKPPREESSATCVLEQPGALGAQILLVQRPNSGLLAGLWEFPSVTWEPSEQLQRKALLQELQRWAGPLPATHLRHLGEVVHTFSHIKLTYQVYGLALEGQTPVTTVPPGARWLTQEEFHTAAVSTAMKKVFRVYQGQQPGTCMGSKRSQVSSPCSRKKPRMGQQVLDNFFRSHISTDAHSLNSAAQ
Assay: pull-down

B1: Flag-tagged Hus1 (natural protein, UniProt O60921 1-280, looked up)
chain: MKFRAKIVDGACLNHFTRISNMIAKLAKTCTLRISPDKLNFILCDKLANGGVSMWCELEQENFFNEFQMEGVSAENNEIYLELTSENLSRALKTAQNARALKIKLTNKHFPCLTVSVELLSMSSSSRIVTHDIPIKVIPRKLWKDLQEPVVPDPDVSIYLPVLKTMKSVVEKMKNISNHLVIEANLDGELNLKIETELVCVTTHFKDLGNPPLASESTHEDRNVEHMAEVHIDIRKLLQFLAGQQVNPTKALCNIVNNKMVHFDLLHEDVSLQYFIPALS
percent decrease of the interaction relative to WT MUTYH: ~20%
